Assay results: US20150098946A1 (Genentech, published 2015)
Residue numbers refer to the chain shown, from its start.

B1: anti-TAT194 monoclonal antibody R4209 (antibody, V domains shown)
VH: EVNLEESGGGLVQPGGSMKLSCVASGFTFSNYWMNWVRQSPEKGLEWVADISLKSNNYGTHYAESVNGRFTISRDDSTSSVYLQMNNLRAEDTGIYYCAVYYYGVKFYYFVLGYWGQGTSVTVSS
VL: DIVMTQSHKFMSTSVGDRVSITCKASQDVSTAVAWYQQKPGQSPKLLIYWGSTRHTGVPDRFTGVGSGTDYSLTISSVQAEDLALYYCQQHYNIPWTFGGGTKLEIKR
notes: Monoclonal antibody from a mouse hybridoma; kappa VL
B2: anti-TAT194 monoclonal antibody R4208 (antibody, V domains shown)
VH: QVHLQQSGSELRSPGSSVKLSCKDFDSEVFPIAYMSWVRQKPGHGFEWIGDILPNIGRTIYGEKFEDKATLDADTVSNTAYLELNSLTSEDSAMYYCGRSITRAWFAYWGQGTLVTVSV
VL: DIQMTQSPSSLSASLGERVSLTCRASQEISGYLSWFQQKPDGTIKRLIYAASTLDSGVPKRFSGSRSGSDYSLTISSLASEDFADYFCLQYAGNPFTFGSGTKLEIKR
notes: as for B1
B3: anti-TAT194 monoclonal antibody R4212 (antibody, V domains shown)
VH: DVQLQESGPGLVAPSQSLSITCTVSGFSLSRYSVHWVRQPPGKGLEWLGMIWLGGSTDYNSALKSRLSISKDISKSQVFLKMNSLQTDDTAMYYCARNLDSRGFAHWGQGTLVTVSA
VL: DVLMTQTPLSLPVSLGDQASISCRSSQSIVHSNGNTYLEWYLQKPGQSPKLLIYKVSNRFSGVPDRFSGSGSGTDFTLKISRVEAEDLGVYYCFQGSHVPPTFGGGTKLEIKR
notes: as for B1
B4: anti-TAT194 monoclonal antibody R4203 (antibody, V domains shown)
VH: EVQLQQSGPELVKPGASMKISCKASGYSFTGFTMNWVKQSHGKNLEWIGLINPYNGVTNYNQKFRGKATLTVDESSSTAYMDLLSLTSEDSAVYYCARHYSFAMDYWGQGTSVTVSS
VL: DIVLTQSPASLAVSLGQRATISCRASESVDGYGSSFMHWYQQKPGQPPKLLIYRTSNLESGIPARFSGSGSTTDFTLTINPVEADDVATYYCQQNSEDRTFGGGTKLEIKR
notes: as for B1
B5: anti-TAT194 monoclonal antibody R4204 (antibody, V domains shown)
VH: QVQLQQSGAELAKPGTSVKMSCKASGYTFTTYWMHWIKQRPGQGLEWIGYINPSTGYSEYNQKFKDKATLTADRSSSTAYMQLSSLTSEDSTVYYCARWRFYGSTYGMDYWGQGTSVTVSS
VL: QIVLTQSPALMSAFPGEKVTLTCSASSSVTYMYWYQQKPRSSPKPWIYLTSKLASGVPSRFSGSGSGTSFSLTITSMEAEDAATYYCQQWTGNPLTFGAGTKLELKR
notes: as for B1
B6: anti-TAT194 monoclonal antibody R4205 (antibody, V domains shown)
VH: QVQLKESGPGLVKPSQSLSLTCTVTGYSITSDYVWNWIRQFPGNKLEWMGYIHYSGGTSYNPSLKSRISITRDTSKNQFFLHLNSLTTEDTATYYCARGNYDWAFAYWGQGTLVTVSA
VL: DVQITQSPSYLAASPGETITINCRASKSISKYLAWYQDKPGKTNKLLISSGSTLQSGIPSRFSGSGSGADFTLTISSLEPEDFAMYYCQQHNEYPWTFGGGTKLEIKR
notes: Monoclonal antibody from a mouse hybridoma; kappa VL; also called anti-RET murine monoclonal antibody clone 4205
B7: anti-TAT194 monoclonal antibody R4206 (antibody, V domains shown)
VH: DVQLQESGPGLVKPSQSLSLTCTVTGFSITSDYAWNWIRQFPGNKLEWMAYITYSGDTGYNPSLKSRISVTRDTSKNQFFLQLSSVTTEDTATYYCARGNYDWVFAYWGQGTLVTVSA
VL: B6 VL with D38E, S49Y, A69T, H91Y, N92I
notes: as for B1
B8: anti-TAT194 monoclonal antibody R4207 (antibody, V domains shown)
VH: B7 VH
VL: B6 VL with D38E, S49Y, A69T, H91Y, N92I
notes: as for B1

molecular target: T1, TAT194 polypeptide as used in the BIAcore analysis (human, UniProt P07949 29-635, limits assumed); test: standard BIAcore analysis
T1 construct: The construct used for the BIAcore analysis (extracellular domain, tag, fusion, isoform) is not described; also called RET

In order of falling Kd:
1. B5  169 nM
2. B3  105 nM
3. B1  2.55 nM
4. B2  1.25 nM
5. B8  0.54 nM
6. B7  0.34 nM
7. B6  0.18 nM
8. B4  0.1 nM
